Laboratory results taken from paper PMC3154745 (Chembiochem : a European journal of chemical biology, 2011).

System: HP1a (homodimerization)
Assay: Equilibrium analytical ultracentrifugation, HP1a self-association
Conditions: equilibrium AUC

Molecule	weakening of the dimerization (dissociation) constant relative to wild-type CSD
W200A: HP1a-CSD point mutant W200A (protein, left off: His6 (…), N-terminal, kept | two lysines for solubility, C-terminal, kept) EQDTIPVSGSTGFDRGLEAEKILGASDNNGRLTFLIQFKGVDQAEMVPSSVANEKIPRMVIHFYEERLSAYSDNED	two-fold weakening
S199ES202E: HP1a-CSD phosphorylation mimic, S199E and S202E double mutant (protein, left off: His6 (…), N-terminal, kept | two lysines for solubility, C-terminal, kept) EQDTIPVSGSTGFDRGLEAEKILGASDNNGRLTFLIQFKGVDQAEMVPSSVANEKIPRMVIHFYEERLEWYEDNED	6 fold
